Test results from patent publication US7723070B2, “Overexpression of aminoacyl-tRNA synthetases for efficient production of engineered proteins containing amino acid analogues” (California Institute of Technology, priority 2000, dated 2010).

Tested on: B834(DE3) or CAG18491 hosts with pQE15/pREP4 or pQE15-MRS/pREP4
Experiment: Translational activity: mDHFR synthesis, statements covering several bacterial hosts (with pQE15 or pQE15-MRS)
Format: cell-based, E. coli
Conditions: each of CAG18491/pQE15/pREP4 and CAG18491/pQE15-MRS/pREP4
Experimental: Methionine analogues were synthesized via alkylation of diethylacetamidomalonate, as previously described (As described in Example I, infra; J. C. M. van Hest, D. A. Tirrell, FEBS Lett. 1998, 428, 68-70). Cultures of B834(DE3)/pQE15-MRS/pREP4 or B834(DE3)/pQE15/pREP4 or CAG18491/pQE15-MRS/pREP4 or CAG18491/pQE15/pREP4 in M9AA media were grown to an optical density of 0.90, and the cells were sedimented by centrifugation. The M9AA medium was prepared by supplementing sterile M9 medium with […] of each of the amino acids, 1 mM MgSO4, 0.2 wt % glucose, 1 mg/ml thiamine chloride, and […] calcium chloride. The antibiotics ampicillin and kanamycin were added at concentrations of 200 mg/l and 35 mg/l, respectively.
Cells were washed three times with M9 salts and resuspended to an optical density of 0.90 in M9 test media containing 19 amino acids plus 1) neither methionine nor analogue (negative control); 2) methionine (60 mg/liter, positive control); or 3) an analogue of interest (60 mg/liter). To test the effect of increasing the level of supplementation of the analogues, a set of experiments was also conducted in which the medium was supplemented with 500 mg/liter of methionine or the amino acid analogue. Expression of mDHFR was induced by addition of 0.4 mM isopropyl β-D-thiogalactopyranoside (IPTG), and protein synthesis was monitored after 4.5 hours.

B1: mDHFR: mouse dihydrofolate reductase with N-terminal hexahistidine sequence, test protein (protein, UniProt P00375 2-187, looked up)
Dihydrofolate reductase: VRPLNCIVAVSQNMGIGKNGDLPWPPLRNEFKYFQRMTTTSSVEGKQNLVIMGRKTWFSIPEKNRPLKDRINIVLSRELKEPPRGAHFLAKSLDDALRLIEQPELASKVDMVWIVGGSSVYQEAMNQPGHLRLFVTRIMQEFESDTFFPEIDLGKYKLLPEYPGVLSEVQEEKGIKYKFEVYEKKD
modifications: N-terminal His6 tag
yield of mDHFR in M9AA medium: approximately 30 mg
